Consider 31 sequences from the supplement of paper PMC9170038.

The data set concerns MS2 coat protein. The data set is described as follows: apparent KD of MS2 coat protein; designed switch direction (-1 OFF switch, 1 ON switch): -1; higher = weaker reporter binding. In short, it runs like this:
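The reported apparent KD is a per-design median over clusters, from curve fits of normalised cluster fluorescence. Protein titrations used SNAP-549-labelled MS2 coat protein, doubled from 0.7 or 1.5 nM to 3 µM, in Tris-HCl pH 7.5 buffer with KCl, MgCl2, BSA, DTT, tRNA and Tween-20, with no input, 200 uM small-molecule ligand, or an oligonucleotide input. The RNA switches were transcribed on Illumina chips by stalled E. coli RNA polymerase.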

[1] abbreviates: Eterna round: R95, input ligand: microRNA oligo, concentration not stated.
Where [2] appears, read: input ligand: microRNA oligo, concentration not stated.
Setting [3] is: Eterna round: R95, input ligand: FMN 200 uM.
Where [4] appears, read: Eterna round: R95, input ligand: none.

For “CCUCUACAUGAGGAUCACCCAUGUGAGGAUAUAAGAUUGCGGAUUCCGCACUACGGUCUUAGAAGGCGCGUGGA [Texebibia] (puzzle: Exclusion 1)”, under setting [1], the “apparent KD of MS2 coat protein” value stood at 0.0172 µM.

With “CCUGCACAUGAGGAUCACCCAUGUCAGGAUAUCUCGCCGUCGGCUUGCCGACGGUAUUAGAGAAGGGACACGGG [JL Tixe mod 1] (puzzle: Exclusion 1)”, under setting [1], the “apparent KD of MS2 coat protein” value is 0.022 µM.

Turning to “CCUGCGGACAAAGGAUAUUGCGGUGGCCGGCUCGGCGUACCGAGCCUACAUGAGGAUCACCCAUGUAAGAAGGUUGUCGUUGGU [JL ViennaUCT Qudice mod] (Eterna round: R96, puzzle: Exclusion NG 2)”, the “apparent KD of MS2 coat protein” value (input ligand: FMN 200 uM) was 0.186 µM, the “apparent KD of MS2 coat protein” value under setting [2] turned out to be 0.0269 µM and the “apparent KD of MS2 coat protein” value (input ligand: none) stood at 0.0335 µM.

In the case of “CCUUCUCGUGUCAGGAUAUCCACUCAUCGAAAUUAGGAGAAGGGACAUGAGGAUCACCCAUGUAUACAUGCCAG [Cequesar] (puzzle: Brourd's mod of Exclusion 4)”, the “apparent KD of MS2 coat protein” value under setting [1] was 0.0617 µM.

In the case of “CCUUGGUGAGGAUAUUGAAAAUCUGUCAUAUGCCGACAACUCAAGAAGGUACAUGAGGAUCACCCAUGUUGGGC [Eternabot (Original) Solution 18] (Eterna round: R97, puzzle: Exclusion 4)”, the “apparent KD of MS2 coat protein” value was 0.107 µM (input ligand: FMN 200 uM) and 0.102 µM (input ligand: none).

As to “CCUUUGUCAGGAUAUCAGAACGCGCUCGUAGGGAGCGCGAAUGAGAAGGGACAUGAGGAUCACCCAUGUAAAGA [Soedes] (puzzle: Exclusion 4)”, the “apparent KD of MS2 coat protein” value under setting [1] came out at 0.0743 µM.

In the case of “CGAACUGUCUAGGAUAUACUCCCAUGCAGUUGAGUAGAAGGAGACACAUGAGGAUCACCCAUGUGACCCGAAGU [EX6 C.12] (Eterna round: R97, puzzle: Exclusion 6)”, the “apparent KD of MS2 coat protein” value by setting is: (input ligand: FMN 200 uM) 0.0253 µM; (input ligand: none) 0.0197 µM.

As for “CGAAGAUGAGGAUAUGCUACAGACAUGUUCGCGCAGAAGUAACAUGAGGAUCACCCAUGUAGAAGGCAUCUUUU [Eternabot (L2) Solution 88] (Eterna round: R97, puzzle: Exclusion 2)”, the “apparent KD of MS2 coat protein” value by setting is: (input ligand: FMN 200 uM) 0.0365 µM; (input ligand: none) 0.0359 µM.

Regarding “CGAAGUAGAAACCGAUCCUACAUGAGGAUCACCCAUGUAGCAAGACGUGCACGCGAAGCUCGUCAGACUACCAGAAG [salish99_TOv1_r3_004] (puzzle: Sensor v3, turn-off variant 1)”, the “apparent KD of MS2 coat protein” value came to 0.343 µM under setting [3], 0.352 µM under setting [1] and 0.332 µM under setting [4].

On to “CGAUGCUCGAGUCGACAUGAGGAUCACCCAUGUAGAGUUAGUGAGGAUAUCGGAGACACAUAGUAUGAGAAGGCGCGAACCUGA [Ex NG3 #17] (Eterna round: R96, puzzle: Exclusion NG 3)”, for which the “apparent KD of MS2 coat protein” value reads like this: (input ligand: FMN 200 uM) 0.0218 µM; under setting [2], 0.0163 µM; (input ligand: none) 0.0188 µM.

Turning to “CGAUUGUGAGGAUAUACUUGUGGUAAUGCACCUGUAUGUAAACAUGAGGAUCACCCAUGUAGAAGGUACGACAG [Eternabot (L2) Solution 11] (Eterna round: R97, puzzle: Exclusion 2)”, the “apparent KD of MS2 coat protein” value amounted to 0.0276 µM (input ligand: FMN 200 uM) and 0.0275 µM (input ligand: none).

“CGCACACAUGAGGAUCACCCAUGUGAGGAUAUCAUGCUUCGUAGUAAACUACGAAGUGUGAGAAGGCACAUGCA [Omei Ex1 D6] (Eterna round: R97, puzzle: Exclusion 1)”: the “apparent KD of MS2 coat protein” value is, setting by setting: (input ligand: FMN 200 uM) 0.169 µM; (input ligand: none) 0.0444 µM.

As for “CGCAUGCAAGGAUAUACUUGCAGUGAUAUUCGAUAAAGUCUACUUGAGGAUCACCCAAGUAGAAGGUGCAUGCG [Exclusion 2 (Mod6.1 JL EX2 4.74 Vienna UCT mod of Mamaed)] (Eterna round: R97, puzzle: Exclusion 2)”, the “apparent KD of MS2 coat protein” value (input ligand: FMN 200 uM) was 0.0333 µM and the “apparent KD of MS2 coat protein” value (input ligand: none) worked out at 0.025 µM.

On to “CGCUGGACAGGAUAUGUUCUUGGGCACUUGAGGAUCACCCAAGUCAUCAAAAACUCAGGCACAGAAGGGUUUAUGG [salish99_ex5_r4_019] (Eterna round: R97, puzzle: Exclusion 5)”, for which the “apparent KD of MS2 coat protein” value is, setting by setting: (input ligand: FMN 200 uM) 0.076 µM; (input ligand: none) 0.176 µM.

As for “CGGAUGUGAGGAUAUACAUGAGGAUCACCCAUGUGAGCCAGCUAGAUGACUGGCUCGUGUAGAAGGCACGUCUG [Mat - Exclusion 3 - Mod of JL D92] (puzzle: Exclusion 3)”, under setting [1], the “apparent KD of MS2 coat protein” value came out at 0.0121 µM.

Take “CGGAUGUUAGGAUAUUAGUAGUAGUCAGAAUAGACUAUUACUGAGAAGGAACAUGAGGAUCACCCAUGUUUCCG [Eli x4 4.19] (Eterna round: R97, puzzle: Exclusion 4)”: the “apparent KD of MS2 coat protein” value reads like this: (input ligand: FMN 200 uM) 0.0165 µM; (input ligand: none) 0.0174 µM.

As to “CGGCAUGAAGGAUAUACAUGAGGAUCACCCAUGUAAGUUACCUACAUGGCCUCACCUAGUAGAAGGUUAUCCGG [Eternabot (L2) Solution 72] (Eterna round: R97, puzzle: Exclusion 3)”, the “apparent KD of MS2 coat protein” value (input ligand: FMN 200 uM) stood at 0.0944 µM and the “apparent KD of MS2 coat protein” value (input ligand: none) was found to be 0.028 µM.

As to “CGGCAUGUAGAAGGAUAUCUGCACGUUUAGUGCAGAGAAGGUCUAACAUGAGGAUCACCCAUGUAGAUCAUUAACCGAUUAAUU [ENG1/8-A2] (Eterna round: R96, puzzle: Exclusion NG 1)”, the “apparent KD of MS2 coat protein” value reads like this: (input ligand: FMN 200 uM) 0.0195 µM; under setting [2], 0.0104 µM; (input ligand: none) 0.0121 µM.

In the case of “CGGUCGUCCUCAGGAUAUACAUGAGGAUCACCCAUGUUUCUAGGAUCGGUCGUCCGGUCGGUGGUGUAGAAGGGAGGGUGGCUG [random 2, A 18%] (Eterna round: R96, puzzle: Exclusion NG 2)”, the “apparent KD of MS2 coat protein” value by setting is: (input ligand: FMN 200 uM) 0.159 µM; under setting [2], 0.0371 µM; (input ligand: none) 0.0436 µM.

As for “CGGUGUAACGUAGGAUAUCAACGCAACUGACGAUGAGAAGGACGACAUGAGGAUCACCCAUGUGAUUUCUCAAUAUUAUACAUC [Prohibition 86 - Jieux - Exclusion NG 1] (Eterna round: R96, puzzle: Exclusion NG 1)”, the “apparent KD of MS2 coat protein” value came to 0.339 µM (input ligand: FMN 200 uM), 0.0419 µM under setting [2] and 0.0634 µM (input ligand: none).

On to “CGUAGCAAAGUGAGGAUAUCUAGAGCCUCGGCUCUAGAGAAGGCACAUGAGGAUCACCCAUGUGGUCAGCUACG [BmEx4/8-A2] (Eterna round: R97, puzzle: Brourd's mod of Exclusion 4)”, for which the “apparent KD of MS2 coat protein” value was 1.05 µM (input ligand: FMN 200 uM) and 0.101 µM (input ligand: none).

For the sequence “CGUCAGUGAGGAUAUGGUAACGUUUACAUGAGGAUCACCCAUGUUUCAUGGGACUAGAGACUAGAAGGCACUGACG [JR_Ex5_Sub030] (Eterna round: R97, puzzle: Exclusion 5)”, the “apparent KD of MS2 coat protein” value came to 0.439 µM (input ligand: FMN 200 uM) and 0.416 µM (input ligand: none).

In the case of “CGUCCGAACUCAGGAUAUCAACUUAACAACAUGAGGAUCACCCAUGUGGCCUGUAAAACCCGAGAUGAGAAGGGAGGGCGGGCC [Usceondiat] (Eterna round: R96, puzzle: Exclusion NG 2)”, the “apparent KD of MS2 coat protein” value runs as follows: (input ligand: FMN 200 uM) 0.0136 µM; under setting [2], 0.0154 µM; (input ligand: none) 0.0197 µM.

In the case of “CGUCUGUAAGGAUAUGGUUACAUAGACAUGAGGAUCACCCAUGUUACGUGGGACUAGUGAUUAGAAGGUACGAACG [EX5 #67] (Eterna round: R97, puzzle: Exclusion 5)”, the “apparent KD of MS2 coat protein” value came out at 0.0547 µM (input ligand: FMN 200 uM) and 0.0512 µM (input ligand: none).

On to “CGUGACUCAGGAUAUCUAUUGUAUCACAUGAGGAUCACCCAUGUCCAGCGAAAGCUGGAGGGAGAAGGGAGUCACG [Fiskers Ex 5 - 46] (puzzle: Exclusion 5)”, for which the “apparent KD of MS2 coat protein” value under setting [3] amounted to 0.0486 µM, the “apparent KD of MS2 coat protein” value under setting [1] is 0.204 µM and the “apparent KD of MS2 coat protein” value under setting [4] came to 0.186 µM.

With “CGUGACUCAGGAUAUGUAUAAUAUCACAUGAGGAUCACCCAUGUCCAGCGAAAGCUGGAGGCAGAAGGGAGUCACG [Fiskers Ex 5 - 38] (puzzle: Exclusion 5)”, the “apparent KD of MS2 coat protein” value runs as follows: under setting [3], 0.0431 µM; under setting [1], 0.0588 µM; under setting [4], 0.0319 µM.

For “CGUGCGUAUGUGAGGAUAUGCUGGUCCUUGGAUCAGCAGAAGGCACAUGAGGAUCACCCAUGUGGUGUCGUACU [salish99_Bmod_Ex4_017] (puzzle: Brourd's mod of Exclusion 4)”, under setting [1], the “apparent KD of MS2 coat protein” value turned out to be 0.161 µM.

Consider “CGUGCGUAUGUGAGGAUAUGCUGGUCCUUGGAUCGGCAGAAGGCACAUGAGGAUCACCCAUGUGGUGUCGUUCC [salish99_Bmod_ex4_094] (Eterna round: R96, puzzle: Brourd's mod of Exclusion 4)”, for which the “apparent KD of MS2 coat protein” value is, setting by setting: (input ligand: FMN 200 uM) 0.328 µM; under setting [2], 0.0308 µM; (input ligand: none) 0.0391 µM.

Take “CGUGCGUAUGUGAGGAUAUGCUGGUCCUUGGAUCGGCAGAAGGCACAUGAGGAUCACCCAUGUGGUGUCGUUCC [salish99_Bmod_ex4_094] (puzzle: Brourd's mod of Exclusion 4)”: under setting [1], the “apparent KD of MS2 coat protein” value is 0.039 µM.

“CGUGGCCGGUGAGGAUAUUGAUGACAUGAGGAUCACCCAUGUGUAUCCUCUCGAAAUACCGUGAUCAAGAAGGCAUGGUGCCAC [Ritibe] (Eterna round: R96, puzzle: Exclusion NG 2)”: the “apparent KD of MS2 coat protein” value (input ligand: FMN 200 uM) turned out to be 0.0685 µM, the “apparent KD of MS2 coat protein” value under setting [2] came to 0.012 µM and the “apparent KD of MS2 coat protein” value (input ligand: none) amounted to 0.014 µM.

With “CUAAAUCAUGUAGGAUAUGCAUAGCAAAGCUAUGCAGAAGGACAUGAGGAUCACCCAUGUCAUUCCGUCUGGAGACAGACGGGA [Mat - Exclusion NG 1 - Mod of JL - D56] (Eterna round: R96, puzzle: Exclusion NG 1)”, the “apparent KD of MS2 coat protein” value reads like this: (input ligand: FMN 200 uM) 0.142 µM; under setting [2], 0.025 µM; (input ligand: none) 0.0325 µM.
